From paper PMC9209526 (Nature Communications, 2022)

What was measured:
[1] = molecular target: T1, N4posAbl (Abl kinase domain with N-terminal KRKKSGG tag) (Homo sapiens, UniProt P00519); assay: ClyA-AS nanopore tweezers single-channel current recording: ligand binding to N4posAbl
T1 sequence (P00519 229-512): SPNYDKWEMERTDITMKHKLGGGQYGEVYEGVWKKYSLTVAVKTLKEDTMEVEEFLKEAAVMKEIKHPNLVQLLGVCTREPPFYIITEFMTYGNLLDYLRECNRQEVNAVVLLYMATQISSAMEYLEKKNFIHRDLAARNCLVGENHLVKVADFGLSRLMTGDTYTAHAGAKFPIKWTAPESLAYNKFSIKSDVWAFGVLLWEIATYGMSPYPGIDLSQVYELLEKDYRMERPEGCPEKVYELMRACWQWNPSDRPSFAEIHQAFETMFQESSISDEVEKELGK

Abl kinase = settings: read-out: reported KD of ATP; cited from earlier work
[2] = molecular target: T2, N4posG321V (Abl kinase domain hinge mutant) (Homo sapiens, UniProt P00519, G321V); assay: ClyA-AS nanopore tweezers single-channel current recording: ligand binding to N4posG321V
T2 construct: His10-TEV (N, cleaved yes); made in house; host or cells: E. coli BL21(DE3)pLysS, co-expressed with YopH phosphatase
T2 sequence (P00519 229-512 G321V): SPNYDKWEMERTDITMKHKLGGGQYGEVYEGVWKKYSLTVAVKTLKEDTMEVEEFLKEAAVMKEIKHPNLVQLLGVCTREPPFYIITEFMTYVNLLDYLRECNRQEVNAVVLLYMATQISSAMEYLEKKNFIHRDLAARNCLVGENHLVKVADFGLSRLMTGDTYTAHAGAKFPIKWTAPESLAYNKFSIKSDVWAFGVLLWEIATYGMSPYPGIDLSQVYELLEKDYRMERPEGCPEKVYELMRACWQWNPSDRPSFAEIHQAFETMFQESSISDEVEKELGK

[3] = molecular target: T3, N4posAbl: wildtype Abl kinase domain (residues 229-512) with a positively charged peptide tail (N4pos tag, … (human, UniProt P00519 229-512)); assay: ClyA nanopore tweezers (single-channel current recording); single Abl kinase molecule trapped in a ClyA-AS nanopore in a DPhPC bilayer; Abltide titrated with 10 mM MgCl2; occupancy of the bound state against concentration fitted with a single site binding model; -80 mV, 150 mM NaCl, 100 mM Tris-HCl, pH 7.5, 22 °C, ~100 nM kinase in cis; settings: both partners purified
T3 sequence (looked up): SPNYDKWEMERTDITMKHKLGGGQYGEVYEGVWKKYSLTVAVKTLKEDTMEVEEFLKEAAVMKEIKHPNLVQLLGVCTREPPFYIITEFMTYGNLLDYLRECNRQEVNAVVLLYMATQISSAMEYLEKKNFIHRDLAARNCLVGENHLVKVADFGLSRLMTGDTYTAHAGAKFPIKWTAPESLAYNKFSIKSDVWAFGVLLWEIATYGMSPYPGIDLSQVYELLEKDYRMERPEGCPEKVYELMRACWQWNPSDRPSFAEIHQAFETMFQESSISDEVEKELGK

[4] = molecular target: T4, N4posG321V: Abl kinase domain (residues 229-512) hinge mutant G321V with the N4pos tag (KRKKSGG) at its … (human, UniProt P00519 229-512, G321V); assay: as above; settings: both partners purified
T4 construct: also called Abl G321V
T4 sequence (looked up): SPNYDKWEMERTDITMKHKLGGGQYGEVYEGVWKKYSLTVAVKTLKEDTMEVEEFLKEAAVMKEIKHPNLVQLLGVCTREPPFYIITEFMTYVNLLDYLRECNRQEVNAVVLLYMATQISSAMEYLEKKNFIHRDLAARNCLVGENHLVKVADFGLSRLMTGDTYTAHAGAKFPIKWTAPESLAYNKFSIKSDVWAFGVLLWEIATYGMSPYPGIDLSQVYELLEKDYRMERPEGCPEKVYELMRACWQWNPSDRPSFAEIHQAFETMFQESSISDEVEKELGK

[5] = molecular target: T5, kinase substrate peptide Abltide (Homo sapiens, UniProt P00519); assay: Enzyme-coupled Abl kinase assay (NADH consumption), Michaelis-Menten kinetics; type: biochemical
T5 sequence (P00519 229-512): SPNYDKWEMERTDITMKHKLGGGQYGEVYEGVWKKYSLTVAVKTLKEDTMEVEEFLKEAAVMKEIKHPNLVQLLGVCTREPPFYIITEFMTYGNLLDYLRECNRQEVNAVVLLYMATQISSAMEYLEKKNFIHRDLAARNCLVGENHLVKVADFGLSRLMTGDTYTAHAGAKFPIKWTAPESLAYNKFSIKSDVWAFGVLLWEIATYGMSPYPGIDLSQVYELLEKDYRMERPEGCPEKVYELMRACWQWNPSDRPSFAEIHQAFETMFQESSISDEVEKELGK
Protocol: (§1) Absorbance at 340 nm was monitored with a microtiter plate spectrophotometer (BioTek Synergy 2) for 30 min. The background kinase activity was determined in the reaction mix without the substrate peptide and subtracted from the experiments with the substrate peptide. To obtain the enzyme kinetics, initial phosphorylation rates at different substrate peptide concentrations (50~800 µM) were measured. Plots of the initial rate as a function of peptide substrate concentration were fit by nonlinear regression to obtain the Michaelis-Menten kinetic parameters.

[6] = system: kinase substrate peptide Abltide; assay: as above; type: biochemical; settings: for Vmax / kcat: Abltide 50~800 µM, […] ATP, 30 nM kinase, 30 °C; for catalytic activity: Michaelis-Menten kinetic analysis
Protocol: as §1

[7] = Conformational state analysis of apo Abl kinases in ClyA-AS nanopore (S1/S2 and S1 sub-state dwell times, populations, rate constants, free energy); set-up: species or system human

[Cl-].[Cl-].[Mg+2] [MgCl2]
effect on N4posAbl current signal / conformational states [1]: did not trigger any noticeable change

ATP
Kd (Abl kinase): 69 ± 4 µM
effect on N4posG321V current trace [2]: did not trigger any change in the current trace

B1: kinase substrate peptide Abltide (peptide)
peptide: KKGEAIYAAPFA
notes: Abl substrate peptide Abltide
Kd [3]: 69.9 ± 13 µM
Kd [4]: 257 ± 55.9 µM

B2: Abl: wildtype Abl kinase domain (residue 229-512) (protein)
chain: SPNYDKWEMERTDITMKHKLGGGQYGEVYEGVWKKYSLTVAVKTLKEDTMEVEEFLKEAAVMKEIKHPNLVQLLGVCTREPPFYIITEFMTYGNLLDYLRECNRQEVNAVVLLYMATQISSAMEYLEKKNFIHRDLAARNCLVGENHLVKVADFGLSRLMTGDTYTAHAGAKFPIKWTAPESLAYNKFSIKSDVWAFGVLLWEIATYGMSPYPGIDLSQVYELLEKDYRMERPEGCPEKVYELMRACWQWNPSDRPSFAEIHQAFETMFQESSISDEVEKELGK
kcat [5]: 7.1 ± 0.7 s⁻¹
Vmax [6]: 12.8 ± 1.3 µM/min
kcat [6]: 7.112 ± 0.717 s⁻¹

B3: N4posAbl: Abl kinase domain with positively charged peptide tail KRKKSGG at its N-terminus (protein)
chain: SPNYDKWEMERTDITMKHKLGGGQYGEVYEGVWKKYSLTVAVKTLKEDTMEVEEFLKEAAVMKEIKHPNLVQLLGVCTREPPFYIITEFMTYGNLLDYLRECNRQEVNAVVLLYMATQISSAMEYLEKKNFIHRDLAARNCLVGENHLVKVADFGLSRLMTGDTYTAHAGAKFPIKWTAPESLAYNKFSIKSDVWAFGVLLWEIATYGMSPYPGIDLSQVYELLEKDYRMERPEGCPEKVYELMRACWQWNPSDRPSFAEIHQAFETMFQESSISDEVEKELGK
τS1 ([7]; N4posAbl, pore #1, single S1 dwell events): 443.75 ms
τS1 ([7]; N4posAbl, pore #3, single S1 dwell events): 1114.75 ms
τS2 ([7]; N4posAbl, pore #3, single S2 dwell events): 3255.5 ms
Vmax [6]: 13.3 ± 1.1 µM/min
kcat [6]: 7.395 ± 0.585 s⁻¹
catalytic activity [6]: no influence on the catalytic activity

B4: N4posG321V: N4posAbl hinge mutant G321V intended to enhance rigidity; catalytically inactive (protein)
chain: SPNYDKWEMERTDITMKHKLGGGQYGEVYEGVWKKYSLTVAVKTLKEDTMEVEEFLKEAAVMKEIKHPNLVQLLGVCTREPPFYIITEFMTYVNLLDYLRECNRQEVNAVVLLYMATQISSAMEYLEKKNFIHRDLAARNCLVGENHLVKVADFGLSRLMTGDTYTAHAGAKFPIKWTAPESLAYNKFSIKSDVWAFGVLLWEIATYGMSPYPGIDLSQVYELLEKDYRMERPEGCPEKVYELMRACWQWNPSDRPSFAEIHQAFETMFQESSISDEVEKELGK
τS1 ([7]; N4posG321V, 16 pores, single S1 dwell events): 1005.56 ms
τS1 (ms), 16 pores ([7]; N4posG321V, individual S1 dwell times, 16 pores): 214.2 ms
catalytic activity [6]: abrogated the catalytic activity
